Measurements as given in article doi:10.1101/2023.06.14.544911.

Key:
Test in all cases: pull-down
[1] = biological target: T1, ZCCHC3 MF R168/247S R168S;R247S (human) (UniProt Q9NUD5)
T1 sequence: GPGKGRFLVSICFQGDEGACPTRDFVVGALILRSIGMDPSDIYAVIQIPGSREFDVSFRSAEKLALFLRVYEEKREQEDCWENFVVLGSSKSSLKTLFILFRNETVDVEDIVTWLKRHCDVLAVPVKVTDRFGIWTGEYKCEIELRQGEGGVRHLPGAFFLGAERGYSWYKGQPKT

[2] = test system: ZCCHC3 MF R168S (human)
[3] = test system: ZCCHC3 MF R247S (human)

HIV-1 LTR (R-U5) RNA
binding signal [1]: 15 % of WT MF | binding signal [2]: 50 % of WT MF | binding signal [3]: 50 % of WT MF
